A short description of the data set: yeast display, Sf9 membrane polyspecificity reagent, FACS + sequencing; frameworks hold sequencing errors. The procedure, abridged: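 Nanobodies came from a synthetic yeast display library in Saccharomyces cerevisiae BJ5465, induced with galactose for 36–48 hours and stained for 1 hour at 4 °C with 10% biotinylated, detergent-solubilized Sf9 membrane reagent. Cells were enriched on streptavidin microbeads and then FACS-sorted, with low and high (top ~1%) gates set on anti-HA fluorescence for expression and streptavidin fluorescence for reagent binding. Each polyreactivity label reflects the gate a clone came from. Genes were amplified by colony PCR, sequenced by MiSeq 2 × 250 and filtered by CDR length.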
“QVQLVESGGGLVQAGGSLRLSCAASGLTFGGYTMGWYRQAPGKERELVAAITSGGSTYYADSVKGRFTISRDNAKNTVYLQMNSLKPEDTAVYYCAARVRGWPVSKFGYWGQGTQVTVSS”: the “polyreactivity (PSR sort gate)” value is recorded as “high polyreactivity”. On to “QVQLVESGGGLVQAGGSLRLSCAASGLTFGHYDMGWYRQAPGKERELVAAITWSGGSTYYADSVKGRFTISRDNAKNTVYLQMNSLKPEDTAVYYCNADQPILYYSYRGVGYDYWGQGTQVTVSS”, for which the “polyreactivity (PSR sort gate)” value is listed as “high polyreactivity”. Then “QVQLVESGGGLVQAGGSLRLSCAASGLTFGNYAMGWYRQTPGKERELVAAISKRGGTTYYADSVKGRFTISRDTAKNTVYLQMNSLKPEDTAVYYCSARDYSHPTDDNYWGPGTQVTVSS”, with “high polyreactivity”.

Consider “QVQLVESGGGLVQAGGSLRLSCAASGLTFGPNALGWYRQAPGQERELVAAITTGGGTNYADSVKGRFTISRDNAKNTVYLQMNSLKPEDTAVYYCAADALDSPDGYDYCGQGTQVTVSS”, for which the “polyreactivity (PSR sort gate)” value was “low polyreactivity”. “QVQLVESGGGLVQAGGSLRLSCAASGLTFGRNAMGWYRQAPGKERELVAAISRSGGRTSYADSVKGRFTISRDNAKNTVYLHMNSLKPEDTAVYYCAARSPIYRTTYYYWGQGTQVTVSS”: the “polyreactivity (PSR sort gate)” value is recorded as “high polyreactivity”. In the case of “QVQLVESGGGLVQAGGSLRLSCAASGLTFGRNAMGWYRQAPGKERELVAAITFNGGSTYYADSVKGRFTISRDNAKNTVYIQMNSLKPEDTAVYYCAAPYYVYWTYPYRVLSYYYWGQGTQVTVSS”, the “polyreactivity (PSR sort gate)” value was “high polyreactivity”. The same measure for “QVQLVESGGGLVQAGGSLRLSCAASGLTFGRNAMGWYRQSPGKERELVAAITFNGGSTYYADSVKGRFTISRDNAKNTVYFQMNSLKPEDTAVYYCAARLWRRSRFDYWGLGTQVTVSS”: “high polyreactivity”. The same measure for “QVQLVESGGGLVQAGGSLRLSCAASGLTFGRNVMGWYRQAPGKERELVAAISWRGDSTYYADSVKGRFTISRDNAKNTGYLQMNSLKPEDTAVYYCAVRYYRGSVASGSDYWGQGTQVTVSS”: “high polyreactivity”; for “QVQLVESGGGLVQAGGSLRLSCAASGLTFGRYAMGWYRQAPGKERELVAAITRSGGRTYYADSVKGRFTISRDNAKNTVYLQMNSLKPEDTAVYYCNKLSHLGAPGDPDDYWGQGTQVTVSS”: “high polyreactivity”. Then “QVQLVESGGGLVQAGGSLRLSCAASGLTFGTNAMGWYRQAPGKERELVAAISTSSGSTYYADSVKGRFTISRDNAKKTVYLQMNSLKQEDTAVYYCAAVTVTKLSYYRYYYWGQGTQVTVSS”, with “low polyreactivity”; and “QVQLVESGGGLVQAGGSLRLSCAASGLTFGTNSMGWYRQAPGKEMELVAAINRGGGSTYYADSVKGRVTISRDNAKNTVYLQMNSLKPEDTAVYYCAKSYSGSRTSDYWGQGTQVTVSS”, with “high polyreactivity”; and “QVQLVESGGGLVQAGGSLRLSCAASGLTFGTYAMGWYRQAPGKERELVAAISTSGVRTYYADSVKGRFTISRDNAKNTVYLQMNSLKPEDTAVYYCAARYNRAYSRDYWGQGTQVTVSS”, with “high polyreactivity”. On to “QVQLVESGGGLVQAGGSLRLSCAASGLTFGVYAMGWYRQAPGQERELVAASTWGDGSTYYADSVKGRFTISRDNAKNTGYLQMNSLKPEDTAVYYCNAVTRRHKYYYWGQGTQVTVSS”, for which the “polyreactivity (PSR sort gate)” value is reported as “high polyreactivity”.

On to “QVQLVESGGGLVQAGGSLRLSCAASGLTFGYYAMGWYRQAPGKERELVAAITGGGGSTYYADSVKGRFTISRDNAKNTVYLQMNSLKPEDTAVYYCAKAVYFRRKGHWYQMEYWGQGTQVTVSS”, for which the “polyreactivity (PSR sort gate)” value is listed as “low polyreactivity”.

As for “QVQLVESGGGLVQAGGSLRLSCAASGLTFGYYAMGWYRQAPGKVRELVAAISRGSSTYYADSVKGRFTISRDNAKNTVYLQMNSLIPEDTAVYYCNALFSYGYWRVRYIVTQYDYWGQGTQVTVSS”, the “polyreactivity (PSR sort gate)” value is listed as “high polyreactivity”. The same measure for “QVQLVESGGGLVQAGGSLRLSCAASGLTFGYYAMVWYRQAPGKERELVAAINRSGNTNYADSVKGRFTISRDNAKNTVYLQMNCLKPEDTAVYYCAKRIWSILSPYKSSYGYDYWGQGSQVTVSS”: “low polyreactivity”.

In the case of “QVQLVESGGGLVQAGGSLRLSCAASGLTFHPYDMGWYRQAPGKERELVAAISSRGTSTYYADSVKGRFTISRDNAKNTVYLQMNSLKPEDTAVYYCAARHGPRAEAMYYWGQGSQVTVSS”, the “polyreactivity (PSR sort gate)” value is listed as “high polyreactivity”. On to “QVQLVESGGGLVQAGGSLRLSCAASGLTFHRYAMGWYRQAPGKERELVAANNYSGGRTYYADSVKGRFTISRDNAKNTVYLQMNSLKPEDTAVYYCAAPRASGYYWGQGTQVTVSS”, for which the “polyreactivity (PSR sort gate)” value is “high polyreactivity”.

Consider “QVQLVESGGGLVQAGGSLRLSCAASGLTFHTNTMGWYRQAPGKERELVAAITWRDDSTYYADSVKGRFTISRDYAMNTVYLQMNSLKPEDTAVFYCAARGGAYLWYHYDYWGQGTQVTVSS”, for which the “polyreactivity (PSR sort gate)” value is reported as “low polyreactivity”. The same measure for “QVQLVESGGGLVQAGGSLRLSCAASGLTFHYYGMGWYRQAPGKERELVAAISSGGSTYYADSVKGRFTISRDNAKNTVYLQMNSLKPEDTAVYYCAASLAYWYRGHYDYWGQGTQVTVSS”: “low polyreactivity”; for “QVQLVESGGGLVQAGGSLRLSCAASGLTFIKYAMGWYRQAPGKEREFVADISKRGGTTYYADSVKGRFTISRDNAKNTVYLQMNSLKPEDTAFYYCAARQYLNVYYRYDYWGQGTQVTVSS”: “high polyreactivity”. As to “QVQLVESGGGLVQAGGSLRLSCAASGLTFIPNAMGWDRQAPGKERELVAAISGTGGSTYYADSVKGRFTISRDNAKNTVYLQMNSLKPEDTAVYYCAARRRYKSGYWGQGTQVTVSS”, the “polyreactivity (PSR sort gate)” value is reported as “high polyreactivity”. On to “QVQLVESGGGLVQAGGSLRLSCAASGLTFIRYTRGWYRQAPGKDRELVAAINWSGDSTYYADSVKGRFTISLDNAKITVYLQMNSLKPEDTAVYYFNARRPRFRYDYWGQGTQVTVSW”, for which the “polyreactivity (PSR sort gate)” value is listed as “high polyreactivity”.

Take “QVQLVESGGGLVQAGGSLRLSCAASGLTFIYYAMGWYRQAPGKERELVAAISVSGGSTYYADSVKGRFTISRDNAKNTVYLQMNSLKQEDTAVYYCAADWFVHKPRYQYSFDYWGQGTQVTVSS”: the “polyreactivity (PSR sort gate)” value is on record as “low polyreactivity”. The same measure for “QVQLVESGGGLVQAGGSLRLSCAASGLTFKFNAMGWYRQAPGKERELVAAISFGGDDTYYADSVKGRFTISRDNAKNTVYLQMNSLKPEDTAVYYCAAEYDTWGYSGRDYWGQGTQVTVSS”: “low polyreactivity”; for “QVQLVESGGGLVQAGGSLRLSCAASGLTFKSYAMGWYRQAPGKERELVAVISSSGGRTYYADSVKGRFTISRDNAKNTVYLQMNSLKPEDTAVYYCAADGSYGKWGGHAMYYWGQGTQVTVSS”: “high polyreactivity”.

Regarding “QVQLVESGGGLVQAGGSLRLSCAASGLTFKSYAMGWYRQAPVKERELVAGISWSGDSTYYADSVKGRFTISRDNAKNTVYLQMNSLKPEDTAVYYCAAEYSYEYDYWGQGTQVTVSS”, the “polyreactivity (PSR sort gate)” value is recorded as “high polyreactivity”. The same measure for “QVQLVESGGGLVQAGGSLRLSCAASGLTFKYYAMGWYRQAPGKERELVAAITATGGLTYYADSEKGRFTISRDNAKKTVYLQMNSLKPEDTAVYYCNARQHQTYYFYKHDYWGQGTQVTVSS”: “high polyreactivity”; for “QVQLVESGGGLVQAGGSLRLSCAASGLTFKYYAMGWYRQATGKERELVARISRGGNTNYADSVKGRFTISRDNAKNTVYLQMNSLKPEDTAVYYCAATVRVYDYWGQGTQVTVSS”: “high polyreactivity”. The same measure for “QVQLVESGGGLVQAGGSLRLSCAASGLTFLRNGMGLYRQAPGKERELVASITRSGTRTYYADSVKGRFTISRDNAKNSVYLQMNSLKPEDTAVYYCAARAYVSHYGVSNFGFYYWVQGTQVTVSS”: “high polyreactivity”; for “QVQLVESGGGLVQAGGSLRLSCAASGLTFNHYAMGWYRQAPGKERELVAAISSGSSTDYADSVKGRFTISRDNAKTTVYLQMHSLKPEDTAVYYCAVETPSTWFWGWGYDYDYWGQGTQVTVSS”: “high polyreactivity”. Take “QVQLVESGGGLVQAGGSLRLSCAASGLTFPANVMGWYRQAPGKERELVAAISRSGGTTYYADSVKGRFTISRDNAKNTVYLQMNILKPEDTAVYYCAAYQVSYFGGSMDYWGQGTQVTVSS”: the “polyreactivity (PSR sort gate)” value is listed as “high polyreactivity”. The same measure for “QVQLVESGGGLVQAGGSLRLSCAASGLTFPGYAMGWYRQAPGKERELVAGISKRGGSTYYADSVKGRFTISRDNAKNTVYLQMNSLKPEDTAVYYCAAVYRSQSQPYDYWGQGTQVTVSS”: “high polyreactivity”; for “QVQLVESGGGLVQAGGSLRLSCAASGLTFPPNAMGWYRQATGKEREFVAVISSGGGSTYYADSVKVRFTISRDNAKNTVYLQMNSLNPEDTAVYYCATEYQDGETEYYYWGQGTQVTVSS”: “low polyreactivity”. Then “QVQLVESGGGLVQAGGSLRLSCAASGLTFPRYAMGGYRQAPGKERELVAAISYRGGRTYYADSVKGRFTISRDNAKNTVYLQMNSLKPEDTAVYYCNADSIYSARGWLYGYWGQGTQVTVSS”, with “low polyreactivity”; and “QVQLVESGGGLVQAGGSLRLSCAASGLTFPTYAMRWYRQAPGKERELVAAISRIGGRTYYADSVKGRFSISRDNAKNTVYLQMNSLKPEDTAVYYCAADGIKGGVEYDYWGQGTQVTVSS”, with “high polyreactivity”. The same measure for “QVQLVESGGGLVQAGGSLRLSCAASGLTFPWYAMGWYRQAPGKERELVASINSSTGSTYYADSVKGRFTISRDNAKNTVYLQMNSLKPEYTAVYYCAAVEYGNMDWGQGTQVTVSS”: “low polyreactivity”; for “QVQLVESGGGLVQAGGSLRLSCAASGLTFPYYVMGWYRQAPGKERELVAAISSSGGSTYYADSVKGRFTISRDNAKNTVYLQMNSLKPEDTAVYYCNAPYVFSAGFDYWGQGTQVTVSS”: “low polyreactivity”; for “QVQLVESGGGLVQAGGSLRLSCAASGLTFQSYAMGWYRQAPGKERELVATISNGSSTYYADSVKGRFTISRDNAKNSVYLQMNSLKPEDTAVYYCAKDYYYSRNPLYGHDYWGQGTQVTVSS”: “low polyreactivity”. Regarding “QVQLVESGGGLVQAGGSLRLSCAASGLTFQYNAMGWYRQAPGKERELVASINSGGSTDYADSVKGRFTISRDNAKNTVYLQMNRLKQEDTAVYYCATSGYWYSASYGYEYWGQGTQVTLSS”, the “polyreactivity (PSR sort gate)” value is recorded as “low polyreactivity”.

In the case of “QVQLVESGGGLVQAGGSLRLSCAASGLTFRRYAMGWYRQAPGKERELVAAINSRGGSTYYADSVKGRFTISRDNAKNTVYLQMNSLKPEDTAVYYCATRSFGRMDYWGQGTQVTVSS”, the “polyreactivity (PSR sort gate)” value was “high polyreactivity”.

The record behind these values is the nanobody polyreactivity screen of Harvey et al. (2022).
